{
  "source": "paper PMC5686067",
  "key": {"[1]": {"target": "sNlpI (soluble NlpI without its lipoprotein signal peptide) (E. coli) (UniProt P0AFB1)", "sequence (P0AFB1 20-294)": "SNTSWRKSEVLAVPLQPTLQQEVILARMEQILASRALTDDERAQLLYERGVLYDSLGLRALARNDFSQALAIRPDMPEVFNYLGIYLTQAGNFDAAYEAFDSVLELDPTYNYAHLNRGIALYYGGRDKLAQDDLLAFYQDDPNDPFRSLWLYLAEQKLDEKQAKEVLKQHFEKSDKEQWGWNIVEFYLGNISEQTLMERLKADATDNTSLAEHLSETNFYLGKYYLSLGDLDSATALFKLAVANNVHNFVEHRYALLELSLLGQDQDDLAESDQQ", "test": "SEC-MALS; ENrich SEC 650 column, 20 mM Tris-HCl pH 7.5, 200 mM NaCl, 2 mM DTT, 0.02% NaN3, 240-360 µg protein injected"}, "[2]": {"target": "sNlpI (soluble NlpI without its lipoprotein signal peptide) (E. coli) (UniProt P0AFB1)", "test": "AUC; sedimentation velocity, absorbance optics, 20 mM Tris-HCl pH 8.0, 100 mM NaCl, 2 mM DTT, 20 °C, c(s) model in Sedfit"}, "[3]": {"target": "sMepS-6×His-C (soluble MepS without its lipoprotein signal peptide, C-terminal His-tag) (E. coli) (UniProt P0AFV4)", "sequence (P0AFV4 28-188 limits assumed)": "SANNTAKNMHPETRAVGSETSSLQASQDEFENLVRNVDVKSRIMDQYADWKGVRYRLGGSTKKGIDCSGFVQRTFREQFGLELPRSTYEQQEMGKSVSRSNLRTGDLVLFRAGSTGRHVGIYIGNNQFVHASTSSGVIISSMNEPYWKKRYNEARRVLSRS", "test": "ITC; iTC200, 20 °C, 20 mM HEPES pH 7.5, 300 mM NaCl, 2 mM 2-mercaptoethanol; 23 µM sMepS or Prc in the cell, 230 µM sNlpI (alone or with equimolar Prc) in the syringe; one binding site model"}, "[4]": {"target": "Prc (full-length, C-terminal His-tag) (E. coli) (UniProt P23865)", "sequence (P23865 23-682 limits assumed)": "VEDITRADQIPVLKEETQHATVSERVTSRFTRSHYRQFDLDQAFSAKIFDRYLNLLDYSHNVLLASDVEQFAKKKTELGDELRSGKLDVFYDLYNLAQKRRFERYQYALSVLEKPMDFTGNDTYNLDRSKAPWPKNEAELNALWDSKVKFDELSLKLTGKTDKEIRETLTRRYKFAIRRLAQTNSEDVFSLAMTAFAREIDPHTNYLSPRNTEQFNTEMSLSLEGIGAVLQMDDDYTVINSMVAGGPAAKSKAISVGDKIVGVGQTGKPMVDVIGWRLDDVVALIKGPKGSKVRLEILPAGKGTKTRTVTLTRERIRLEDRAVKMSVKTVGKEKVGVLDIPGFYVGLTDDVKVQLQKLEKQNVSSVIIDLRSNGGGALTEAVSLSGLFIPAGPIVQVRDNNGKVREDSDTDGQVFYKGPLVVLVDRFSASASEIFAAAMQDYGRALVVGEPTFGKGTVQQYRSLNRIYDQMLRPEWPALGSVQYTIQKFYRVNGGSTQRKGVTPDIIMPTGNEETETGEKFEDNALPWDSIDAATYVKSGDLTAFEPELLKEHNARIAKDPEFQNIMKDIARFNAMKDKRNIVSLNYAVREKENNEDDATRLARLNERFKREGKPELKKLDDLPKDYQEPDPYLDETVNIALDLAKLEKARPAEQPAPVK"}},
  "data": [
    {"substance": "Prc (full-length, C-terminal His-tag) (from UniProt P23865 23-682) (enzyme)", "values": [
      {"measurement": "stoichiometry N (Prc per sNlpI (printed 2:2))", "setting": "[1]", "result": 1},
      {"measurement": "stoichiometry N (Prc per sNlpI (printed 2:2))", "setting": "[2]", "result": 1}
    ]},
    {"substance": "sNlpI-Prc complex (from UniProt P0AFB1 20-294; P23865 23-682)", "values": [
      {"measurement": "Kd", "setting": "[3]", "result": 2090, "unit": "nM"}
    ]},
    {"substance": "sNlpI-QM (D113A/E117A/D120/E124A quadruple mutant) (from UniProt P0AFB1 20-294) (natural protein)", "values": [
      {"measurement": "specific degradation activity of Prc against MepS with sNlpI-QM (nmol min^−1 per mg)", "setting": "[4]", "result": 0.98}
    ]}
  ]
}
